Test results: patent publication US9481899B2, “Methods and compositions for producing hydrocarbons” (priority 2008, dated 2016)

Test system: E. coli MG1655
Experiment: Coexpression of decarbonylase and aldehyde-generating enzyme in E. coli, GC-MS of hydrocarbons
Assay type: cell-based
Conditions: for Production of Alkanes and Alkenes: alkane/alkene biosynthetic polypeptide coexpressed in E. coli with the aldehyde biosynthetic polypeptide of the same table row; for fatty aldehyde decarbonylase activity in E. coli: cotransformed with S. elongatus PCC7942_1594 into E. coli MG1655, M9 minimal media, 37° C.
Text: Seven cyanobacteria, whose complete genome sequences are publicly available, were selected for verification and/or detection of alkane biosynthesis: Synechococcus elongatus PCC7942, Synechococcus elongatus PCC6301, Anabaena variabilis ATCC29413, Synechocystis sp. PCC6803, Nostoc punctiforme PCC73102, Gloeobacter violaceus ATCC 29082, and Prochlorococcus marinus CCMP1986. Only the first three cyanobacterial strains from this list had previously been reported to contain alkanes (Han et al., J. Am. Chem. Soc. 91:5156-5159 (1969); Fehler et al., Biochem. 9:418-422 (1970)). The strains were grown photoautotrophically in shake flasks in 100 mL of the appropriate media (listed in Table 8) for 3-7 days at 30° C. at a light intensity of approximately 3,500 lux. Cells were extracted for alkane detection as follows: cells from 1 mL culture volume were centrifuged for 1 min at 13,000 rpm, the cell pellets were resuspended in methanol, vortexed for 1 min and then sonicated for 30 min. After centrifugation for 3 min at 13,000 rpm, the supernatants were transferred to fresh vials and analyzed by GC-MS. The samples were analyzed on either 30 m DP-5 capillary column (0.25 mm internal diameter) or a 30 m high temperature DP-5 capillary column (0.25 mm internal diameter) using the following method.
After a 1 μL splitless injection (inlet temperature held at 300° C.) onto the GC/MS column, the oven was held at 100° C. for 3 mins. The temperature was ramped up to 320° C. at a rate of 20° C./min. The oven was held at 320° C. for an additional 5 min. The flow rate of the carrier gas helium was 1.3 mL/min. The MS quadrapole scanned from 50 to 550 m/z. Retention times and fragmentation patterns of product peaks were compared with authentic references to confirm peak identity.
The genomic DNA encoding Synechococcus elongatus PCC7942 orf1594 (YP_400611; putative aldehyde-generating enzyme) (SEQ ID NO:65) was amplified and cloned into the NcoI and EcoRI sites of vector OP-80 (pCL1920 derivative) under the control of the Ptrc promoter. The resulting construct (“OP80-PCC7942_1594”) was transformed into E. coli MG1655 and the cells were grown at 37° C. in M9 minimal media with 1% (w/v) glucose as carbon source and supplemented with 100 μg/mL spectinomycin. When the culture reached OD600 of 0.8-1.0, it was induced with 1 mM IPTG and cells were grown for an additional 18-20 h at 37° C. Cells from 0.5 mL of culture were extracted with 0.5 mL of ethyl acetate. After sonication for 60 min, the sample was centrifuged at 15,000 rpm for 5 min. The solvent layer was analyzed by GC-MS as described in Example 1.
The genomic DNA encoding Synechococcus elongatus PCC7942 orf1593 (YP_400610; putative decarbonylase) (SEQ ID NO:1) was amplified and cloned into the NdeI and XhoI sites of vector OP-183 (pACYC derivative) under the control of the Ptrc promoter. The resulting construct was cotransformed with OP80-PCC7942_1594 into E. coli MG1655 and the cells were grown at 37° C. in M9 minimal media supplemented with 100 μg/mL spectinomycin and 100 μg/mL carbenicillin. The cells were cultured and extracted as in Example 3 and analyzed by GC-MS as described in Example 1. […]

Molecule	Production of Alkanes and Alkenes	fatty aldehyde decarbonylase activity in E. coli
SEQ ID NO: 1: Synechococcus elongatus PCC7942 orf1593, putative decarbonylase	yes	active fatty aldehyde decarbonylase
SEQ ID NO: 13: Synechococcus sp. JA-3-3Ab CYA_0415, putative decarbonylase (protein, listed as Synechococcus sp.) MAPANVLPNTPPSPTDGGGTALDYSSPRYRQAYSRINGIVIEGEQEAHDNYLKLAEMLPEAAEELRKLAKMELRHMKGFQACGKNLQVEPDVEFARAFFAPLRDNFQSAAAAGDLVSCFVIQSLIIECFAIAAYNIYIPVADDFARKITEGVVKDEYLHLNFGERWLGEHFAEVKAQIEAANAQNLPLVRQMLQQVEADVEAIYMDREAIVEDFMIAYGEALASIGFNTREVMRLSAQGLRAA	yes	
SEQ ID NO: 11: Thermosynechococcus elongatus BP-1 tll1313, putative decarbonylase (protein, listed as Thermosynechococcus elongatus) MTTATATPVLDYHSDRYKDAYSRINAIVIEGEQEAHDNYIDLAKLLPQHQEELTRLAKMEARHKKGFEACGRNLSVTPDMEFAKAFFEKLRANFQRALAEGKTATCLLIQALIIESFAIAAYNIYIPMADPFARKITESVVKDEYSHLNFGEIWLKEHFESVKGELEEANRANLPLVWKMLNQVEADAKVLGMEKDALVEDFMIQYSGALENIGFTTREIMKMSVYGLTGA	yes	active fatty aldehyde decarbonylase
SEQ ID NO: 3: Synechocystis sp. PCC6803 sll0208, putative decarbonylase (protein, listed as Synechocystis sp.) MPELAVRTEFDYSSEIYKDAYSRINAIVIEGEQEAYSNYLQMAELLPEDKEELTRLAKMENRHKKGFQACGNNLQVNPDMPYAQEFFAGLHGNFQHAFSEGKVVTCLLIQALIIEAFAIAAYNIYIPVADDFARKITEGVVKDEYTHLNYGEEWLKANFATAKEELEQANKENLPLVWKMLNQVQGDAKVLGMEKEALVEDFMISYGEALSNIGFSTREIMRMSSYGLAGV	yes	
SEQ ID NO: 27: Cyanothece sp. ATCC51142 cce_0778, putative decarbonylase (protein, listed as Cyanothece sp.) MQELALRSELDFNSETYKDAYSRINAIVIEGEQEAYQNYLDMAQLLPEDEAELIRLSKMENRHKKGFQACGKNLNVTPDMDYAQQFFAELHGNFQKAKAEGKIVTCLLIQSLIIEAFAIAAYNIYIPVADPFARKITEGVVKDEYTHLNFGEVWLKEHFEASKAELEDANKENLPLVWQMLNQVEKDAEVLGMEKEALVEDFMISYGEALSNIGFSTREIMKMSAYGLRAA	yes	active fatty aldehyde decarbonylase
SEQ ID NO: 51: Prochlorococcus mariunus NATL2A PMN2A_1863, putative decarbonylase, codon optimized for E. coli (protein, listed as Prochlorococcus marinus) MQAFASNNLTVEKEELSSNSLPDFTSESYKDAYSRINAVVIEGEQEAYSNFLDLAKLIPEHADELVRLGKMEKKHMNGFCACGRNLAVKPDMPFAKTFFSKLHNNFLEAFKVGDTTTCLLIQCILIESFAISAYHVYIRVADPFAKRITEGVVQDEYLHLNYGQEWLKANLETVKKDLMRANKENLPLIKSMLDEVSNDAEVLHMDKEELMEEFMIAYQDSLLEIGLDNREIARMALAAVI	yes	active fatty aldehyde decarbonylase
SEQ ID NO: 29: Cyanothece sp. PCC7425 Cyan7425_0398, putative decarbonylase (protein, listed as Cyanothece sp.) MPQVQSPSAIDFYSETYQDAYSRIDAIVIEGEQEAHDNYLKLTELLPDCQEDLVRLAKMEARHKKGFEACGRNLKVTPDMEFAQQFFADLHNNFQKAAAANKIATCLVIQALIIECFAIAAYNIYIPVADDFARKITENVVKDEYTHLNFGEEWLKANFDSQREEVEAANRENLPIVWRMLNQVETDAHVLGMEKEALVESFMIQYGEALENIGFSTREIMRMSVYGLSAA	yes	active fatty aldehyde decarbonylase
SEQ ID NO: 31: Cyanothece sp. PCC7425 Cyan7425_2986, putative decarbonylase (protein, listed as Cyanothece sp.) MSDCATNPALDYYSETYRNAYRRVNGIVIEGEKQAYDNFIRLAELLPEYQAELTRLAKMEARHQKSFVACGQNLKVSPDLDFAAQFFAELHQIFASAANAGQVATCLVVQALIIECFAIAAYNTYLPVADEFARKVTASVVQDEYSHLNFGEVWLQNAFEQCKDEIITANRLALPLIWKMLNQVTGELRILGMDKASLVEDFSTRYGEALGQIGFKLSEILSLSVQGLQAVTP	yes	active fatty aldehyde decarbonylase
SEQ ID NO: 49: Prochlorococcus marinus MIT9313 PMT1231, putative decarbonylase, codon optimized for E. coli (protein, listed as Prochlorococcus marinus) MPTLEMPVAAVLDSTVGSSEALPDFTSDRYKDAYSRINAIVIEGEQEAHDNYIAIGTLLPDHVEELKRLAKMEMRHKKGFTACGKNLGVEADMDFAREFFAPLRDNFQTALGQGKTPTCLLIQALLIEAFAISAYHTYIPVSDPFARKITEGVVKDEYTHLNYGEAWLKANLESCREELLEANRENLPLIRRMLDQVAGDAAVLQMDKEDLIEDFLIAYQESLTEIGFNTREITRMAAAALVS	yes	active fatty aldehyde decarbonylase
